For one experiment, the target named is T1, alpha1A-adrenoceptor (Homo sapiens, UniProt P35348).
T1 chain: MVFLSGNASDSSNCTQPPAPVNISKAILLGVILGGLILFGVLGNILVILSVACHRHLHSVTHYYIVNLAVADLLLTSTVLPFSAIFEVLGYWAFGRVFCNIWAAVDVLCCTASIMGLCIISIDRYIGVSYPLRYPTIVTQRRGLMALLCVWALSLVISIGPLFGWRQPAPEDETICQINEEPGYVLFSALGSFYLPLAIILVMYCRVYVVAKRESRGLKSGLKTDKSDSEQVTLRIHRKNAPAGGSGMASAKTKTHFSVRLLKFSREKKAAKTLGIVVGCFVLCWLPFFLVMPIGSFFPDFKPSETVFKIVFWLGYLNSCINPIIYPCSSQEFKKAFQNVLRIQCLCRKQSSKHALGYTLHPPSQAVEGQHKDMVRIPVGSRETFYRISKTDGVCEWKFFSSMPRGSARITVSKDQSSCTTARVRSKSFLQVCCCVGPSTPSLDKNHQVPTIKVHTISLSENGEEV
Briefly: [3H]-Prazosin equilibrium inhibition binding.

In experiment [1] the target is T2, Muscarinic acetylcholine receptor M1 (Homo sapiens, UniProt P11229).
T2 chain: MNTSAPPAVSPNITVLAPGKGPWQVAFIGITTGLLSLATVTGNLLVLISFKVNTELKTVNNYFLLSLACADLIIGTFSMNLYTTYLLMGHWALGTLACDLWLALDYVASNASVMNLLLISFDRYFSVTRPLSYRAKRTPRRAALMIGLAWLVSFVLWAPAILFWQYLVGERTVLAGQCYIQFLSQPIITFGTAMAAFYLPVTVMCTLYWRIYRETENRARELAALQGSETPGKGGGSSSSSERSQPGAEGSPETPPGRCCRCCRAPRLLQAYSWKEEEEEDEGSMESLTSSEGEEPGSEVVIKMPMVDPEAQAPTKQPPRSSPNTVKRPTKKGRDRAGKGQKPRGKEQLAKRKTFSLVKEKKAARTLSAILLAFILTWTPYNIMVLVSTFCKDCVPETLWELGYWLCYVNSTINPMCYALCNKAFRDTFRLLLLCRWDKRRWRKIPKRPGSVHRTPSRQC
Put plainly: [3H]-NMS equilibrium inhibition binding.

Experiment [2] deals with T3, Muscarinic acetylcholine receptor M4 (Homo sapiens, UniProt P08173).
T3 chain: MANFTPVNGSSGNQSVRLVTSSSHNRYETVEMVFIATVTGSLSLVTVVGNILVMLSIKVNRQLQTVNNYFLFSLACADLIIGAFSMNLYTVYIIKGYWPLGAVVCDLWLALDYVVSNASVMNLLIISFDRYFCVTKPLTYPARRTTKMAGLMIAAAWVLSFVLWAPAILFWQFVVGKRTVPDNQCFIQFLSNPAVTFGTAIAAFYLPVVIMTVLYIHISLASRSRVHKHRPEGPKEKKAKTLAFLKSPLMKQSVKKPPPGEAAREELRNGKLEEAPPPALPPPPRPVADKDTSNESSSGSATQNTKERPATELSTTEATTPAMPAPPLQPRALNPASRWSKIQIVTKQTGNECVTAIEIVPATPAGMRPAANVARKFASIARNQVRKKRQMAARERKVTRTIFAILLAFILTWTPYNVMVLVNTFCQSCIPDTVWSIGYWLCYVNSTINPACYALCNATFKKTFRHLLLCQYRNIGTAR
Put plainly: [3H]-NMS equilibrium inhibition binding.

The Ki is the dissociation constant of the complex between target and ligand, obtained from inhibition or displacement.

B1: Muscarinic toxin 1 (MT1) (protein)
chain: LTCVTSKSIFGITTENCPDGQNLCFKKWYYIVPRYSDITWGCAATCPKPTNVRETIRCCETDKCNE
Consider B1, for which the Ki with alpha1A-adrenoceptor is 62 nM; in experiment [1] it was 24 nM; in experiment [2] it was 310 nM.

B2: Muscarinic toxin 7 (MT7) (protein)
chain: LTCVKSNSIWFPTSEDCPDGQNLCFKRWQYISPRMYDFTRGCAATCPKAEYRDVINCCGTDKCNK
Take B2: the inhibition constant Ki is over 20000 nM in the experiment with alpha1A-adrenoceptor, 0.034 nM in experiment [1] and 13000 nM in experiment [2].
